To fix the notation:
T1: human GDNF structured region, residues 110-211 (hGDNF^mat) (human, UniProt P39905 110-211)
T1 chain: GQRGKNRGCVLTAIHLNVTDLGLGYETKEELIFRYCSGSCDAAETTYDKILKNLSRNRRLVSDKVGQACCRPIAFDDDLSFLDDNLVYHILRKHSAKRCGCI

T2: full length, GPI-anchored rat GFRα1 (mGFRα1^FL; HA-rGFRα1^1-468) (rat) (UniProt Q62997)
T2 sequence (chain, GPI-anchor): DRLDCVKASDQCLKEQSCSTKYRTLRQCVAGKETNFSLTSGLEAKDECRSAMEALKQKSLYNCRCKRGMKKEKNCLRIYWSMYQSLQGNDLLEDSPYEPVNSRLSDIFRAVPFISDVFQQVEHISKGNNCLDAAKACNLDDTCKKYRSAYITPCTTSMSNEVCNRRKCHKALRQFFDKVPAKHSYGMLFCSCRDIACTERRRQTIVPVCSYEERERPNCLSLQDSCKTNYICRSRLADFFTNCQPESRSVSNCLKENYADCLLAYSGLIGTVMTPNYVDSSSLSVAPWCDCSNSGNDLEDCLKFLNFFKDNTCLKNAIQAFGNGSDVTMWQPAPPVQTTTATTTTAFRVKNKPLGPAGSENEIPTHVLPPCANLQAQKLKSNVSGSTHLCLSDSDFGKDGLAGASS

B1: zebrafish GFRα1 residues 144-368 (zGFRα1^D2-D3+) (domain or fragment, UniProt Q98TT9 144-368, looked up)
chain: EPALAKENNCLNAAKACNLNDTCKKYRSAYISPCTSRVSTAEVCNKRKCHKALRQFFDKVPPKHSYGMLYCSCPLGDQSACSERRRQTIVPACSYEDKERPNCLTLQVSCKTNYICRSRLADFFTNCQPEPLSLSGCLKENYADCLLSYSGLIGTVMTPNYLRSPKISVSPFCDCSSSGNSKEECDRFTEFFTDNACLRNAIQAFGNGTDVSVWHPMPPVQTTTS
notes: GFRα1a, zebrafish, residues 144-368 (D2-D3 and part of the C-tail, lacking D1); also called zGFRα1^144-368; source: Expi293F, secreted; purified (Ni-NTA, SEC) or co-expressed with zGDNF^mat and co-purified; not shown: His6, C-terminal, kept
B2: zebrafish GFRα1 residues 20-353 (zGFRα1^D1-D3, lacking the GPI-anchor); ordered portion in the crystal zGFRα1^D2-D3 (domain or fragment, UniProt Q98TT9 144-353, looked up)
chain: EPALAKENNCLNAAKACNLNDTCKKYRSAYISPCTSRVSTAEVCNKRKCHKALRQFFDKVPPKHSYGMLYCSCPLGDQSACSERRRQTIVPACSYEDKERPNCLTLQVSCKTNYICRSRLADFFTNCQPEPLSLSGCLKENYADCLLSYSGLIGTVMTPNYLRSPKISVSPFCDCSSSGNSKEECDRFTEFFTDNACLRNAIQAFGNGTD
modifications: N-linked glycans (8 resolved for the 10 zGFRα1 protomers)
notes: GFRα1a, zebrafish, residues 20-353; In the crystal only D2-D3 is present (D1 clipped)
B3: human GFRα1 residues 150-424 (hGFRα1^D2-CT) (domain or fragment)
chain: KGNNCLDAAKACNLDDICKKYRSAYITPCTTSVSNDVCNRRKCHKALRQFFDKVPAKHSYGMLFCSCRDIACTERRRQTIVPVCSYEEREKPNCLNLQDSCKTNYICRSRLADFFTNCQPESRSVSSCLKENYADCLLAYSGLIGTVMTPNYIDSSSLSVAPWCDCSNSGNDLEECLKFLNFFKDNTCLKNAIQAFGNGSDVTVWQPAFPVQTTTATTTTALRVKNKPLGPAGSENEIPTHVLPPCANLQAQKLKSNVSGNTHLCISNGNYEKEG
B4: zebrafish GDNF mature structured region, residues 135-235 (zGDNF^mat) (ligand, UniProt Q98TU0 135-235, looked up)
chain: VKGQGRGCLLKEIHLNVTDLDLGYRTKEELIFRYCSGPCHDAETNYDKILNNLTHNKKLDKDTPSRTCCRPIAFDDDISFLDDSLEYHTLKKHSAKKCACV
notes: GDNF, zebrafish, mature structured region, residues 135-235; The co-expressed form is called untagged; the methods describe no separate untagged construct, so both are kept as one molecule; also called untagged zGDNF^mat; soluble zGDNF^mat; source: Expi293F, secreted; not shown: His6, N-terminal, cleaved
B5: zebrafish GDNF residues 134-235 (mature form, zGDNF^mat), crystallised in complex with zGFRα1^D1-D3 (ligand, UniProt Q98TU0 134-235, looked up)
chain: RVKGQGRGCLLKEIHLNVTDLDLGYRTKEELIFRYCSGPCHDAETNYDKILNNLTHNKKLDKDTPSRTCCRPIAFDDDISFLDDSLEYHTLKKHSAKKCACV
modifications: N-linked glycan at the N-glycosylation site of all zGDNF protomers
notes: GDNF, zebrafish, residues 134-235 (mature form); the methods give 135-235 for zGDNF^mat; Covalent dimer
B6: hGFRα1^D1-CT-K251E (protein)
chain: DRLDCVKASDQCLKEQSCSTKYRTLRQCVAGKETNFSLASGLEAKDECRSAMEALKQKSLYNCRCKRGMKKEKNCLRIYWSMYQSLQGNDLLEDSPYEPVNSRLSDIFRVVPFISDVFQQVEHIPKGNNCLDAAKACNLDDICKKYRSAYITPCTTSVSNDVCNRRKCHKALRQFFDKVPAKHSYGMLFCSCRDIACTERRRQTIVPVCSYEEREKPNCLNLQDSCETNYICRSRLADFFTNCQPESRSVSSCLKENYADCLLAYSGLIGTVMTPNYIDSSSLSVAPWCDCSNSGNDLEECLKFLNFFKDNTCLKNAIQAFGNGSDVTVWQPAFPVQTTTATTTTALRVKNKPLGPAGSENEIPTHVLPPCANLQAQKLKSNVSGNTHLCISNGNYEKEG
B7: hGFRα1^D1-CT-L287E (protein)
chain: B6 chain with E227K, L263E
B8: hGFRα1^D1-CT-K251E L287E (protein)
chain: B6 chain with L263E
B9: human GFRα1 residues 25-424 (hGFRα1^D1-CT) (domain or fragment)
chain: B6 chain with E227K
B10: rat GDNF (rGDNF) (ligand)
chain: SPDKQAAALPRRERNRQAAAASPENSRGKGRRGQRGKNRGCVLTAIHLNVTDLGLGYETKEELIFRYCSGSCEAAETMYDKILKNLSRSRRLTSDKVGQACCRPVAFDDDLSFLDDSLVYHILRKHSAKRCGCI

Changes are numbered by the printed parent chain. Numbers in names are those of the source.

Data set [1] deals with the molecule itself. The experiment in a line: negative-stain electron microscopy; zGDNF^mat-zGFRα1^D2-D3+ cross-linked with 0.1% glutaraldehyde, SEC (Superose 6 Increase) in 20 mM HEPES pH 7.5, 130 mM NaCl, ~700 kDa fraction imaged; reconstruction at 30 Å.
Data set [2] deals with the molecule itself. The experiment in a line: crystal structure; zGDNF^mat-zGFRα1^D1-D3 complex at 2.5 mg/ml in 20 mM Tris pH 7.0, 100 mM NaCl, 1 mM CaCl2; sitting drop, 22 °C; D1 clipped during crystallisation; 2.65 Å, P2_1, ten copies in the asymmetric unit.
The target in data set [3] is T1, human GDNF structured region, residues …. The experiment in a line: SPR.
Data set [4] concerns the target B1. The experiment in a line: native gel or EMSA; blue native PAGE (3-12% Bis-Tris) of Ni2+-NTA purified co-expressed zGDNF^mat-zGFRα1 samples, 2 mg/ml, 10 mM HEPES pH 7.5, 130 mM NaCl, 1 mM CaCl2; time points. The following applies: both partners purified.
Data set [5] concerns the target T2, full length, GPI-anchored rat GFRα1 (mGFRα1^FL; HA-rGFRα1^1-468) (rat).

Consider B1, for which, in data set [1], the binding result was “binds”.

B2: the “stoichiometry N” value in data set [2] amounted to 5 protomers in each ring.

As for B3, the Kd in data set [3] was 71 nM. In other words, the double-digit nanomolar range.

Take B4: the “stoichiometry N” value in data set [4] is 1 zGDNF^mat protomers per zGFRα1 (10:10).

Turning to B5, in data set [2], the “stoichiometry N” value was 2 protomers in each covalent dimer.

For B6, the affinity in data set [3], expressed as Kd, was 48 nM.

In data set [3], B7 yielded a Kd of 33 nM. The Kd values of the last two molecules are within 1.5-fold of each other.

For the molecule B8, the Kd in data set [3] turned out to be 91 nM. This Kd is about 2.8-fold higher than that of the molecule before.

For the molecule B9, binding in data set [3] was characterised by a dissociation constant (Kd) of 32 nM.

B10 returned an HEK293 cell adhesion assay: proportion of cell clusters of mGFRα1^FL-expressing cells after rat GDNF (200 ng/ml) in data set [5] of 5 fold.

A word on the stoichiometry N: it is a count of units in the complex or per binding partner. A word on the Kd: it is the constant that tells how readily two partners part at equilibrium. Read a low Kd as higher affinity.

The record behind these values is publication PMC10661694, “Architecture and regulation of a GDNF-GFRα1 synaptic adhesion assembly” (Nature Communications, 2023).
